Measured values from US20190218292A1.

Tests used:
[1] = target: human CD64 receptor (hFcγRI) (human) (UniProt P12314); experiment: ELISA, coated hCD64
[2] = target: FcRn receptor (recombinant protein human FcRnα and β2-microglobulin) (human) (UniProt P55899); experiment: ELISA at pH 6, coated FcRn
[3] = target: human CD64 receptor (hFcγRI) (human) (UniProt P12314); experiment: ELISA, coated hCD64, 0.5 µg/ml
hCD32aH (human) [4] = target: hCD32aH (human) (UniProt P12318); experiment: ELISA, coated hCD32aH, 0.5 µg/ml
hCD32aH (human), sequence (P12318 36-218): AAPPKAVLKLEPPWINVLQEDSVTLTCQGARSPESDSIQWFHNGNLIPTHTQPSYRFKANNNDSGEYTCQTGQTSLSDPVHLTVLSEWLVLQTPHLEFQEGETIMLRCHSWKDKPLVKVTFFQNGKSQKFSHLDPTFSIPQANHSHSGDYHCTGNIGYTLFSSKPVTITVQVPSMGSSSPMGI

[5] = target: murine PD1 antigen (murine) (UniProt Q02242); experiment: ELISA, coated murine PD1
murine PD1 antigen (murine), sequence (Q02242 25-167 limits assumed): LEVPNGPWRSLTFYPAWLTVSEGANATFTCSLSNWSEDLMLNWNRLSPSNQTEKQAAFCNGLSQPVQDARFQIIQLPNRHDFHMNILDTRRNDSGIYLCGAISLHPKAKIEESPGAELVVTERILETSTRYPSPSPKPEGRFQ

hCD32aH (human) [6] = target: hCD32aH (human) (UniProt P12318); experiment: ELISA, coated hCD32aH, IgG aggregated with anti-CK F(ab')2-HRP
[7] = target: human PD1 antigen (recombinant protein) (human) (UniProt Q15116); experiment: ELISA, coated human PD1
human PD1 antigen (recombinant protein) (human), sequence (Q15116 25-167 limits assumed): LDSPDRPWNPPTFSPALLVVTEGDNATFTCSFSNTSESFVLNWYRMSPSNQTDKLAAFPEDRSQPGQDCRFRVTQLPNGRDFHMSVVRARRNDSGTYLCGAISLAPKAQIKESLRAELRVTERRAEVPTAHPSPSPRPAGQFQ

hCD32aR (human) [8] = target: hCD32aR (human) (UniProt P12318); experiment: ELISA, coated hCD32aR, 0.5 µg/ml
hCD16aV (human) [9] = target: hCD16aV (human) (UniProt P08637); experiment: ELISA, coated hCD16aV, IgG aggregated with anti-CK F(ab')2-HRP
[10] = target: cynomolgus monkey PD1 antigen (cynomolgus monkey) (UniProt B0LAJ3); experiment: ELISA, coated cynomolgus PD1
cynomolgus monkey PD1 antigen (cynomolgus monkey), sequence (B0LAJ3 entry or part of it limits assumed, form in doubt): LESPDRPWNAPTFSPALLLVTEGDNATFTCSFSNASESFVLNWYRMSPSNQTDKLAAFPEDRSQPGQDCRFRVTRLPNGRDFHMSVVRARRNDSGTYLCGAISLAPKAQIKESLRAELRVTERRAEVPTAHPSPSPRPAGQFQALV

hCD32b (human) [11] = target: hCD32b (human) (UniProt P31994); experiment: ELISA, coated hCD32b, IgG aggregated with anti-CK F(ab')2-HRP
hCD32b (human), sequence (P31994 46-217): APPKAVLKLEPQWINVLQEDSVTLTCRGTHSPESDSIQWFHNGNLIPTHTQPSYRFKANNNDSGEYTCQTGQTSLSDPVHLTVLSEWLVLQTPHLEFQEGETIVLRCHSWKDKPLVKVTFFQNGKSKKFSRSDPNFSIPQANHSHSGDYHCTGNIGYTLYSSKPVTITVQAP

[12] = target: human PD1 antigen (recombinant protein) (human) (UniProt Q15116); experiment: ELISA, coated human PD1, 0.2 µg/ml
[13] = target: FcRn receptor (recombinant protein human FcRnα and β2-microglobulin) (human) (UniProt P55899); experiment: ELISA at pH 6, coated FcRn, 10 µg/ml
[14] = target: cynomolgus monkey PD1 antigen (cynomolgus monkey) (UniProt B0LAJ3); experiment: ELISA, coated cynomolgus PD1, 0.2 µg/ml
hCD16aV (human) [15] = target: hCD16aV (human) (UniProt P08637); experiment: ELISA, coated hCD16aV, 0.5 µg/ml
hCD32b (human) [16] = target: hCD32b (human) (UniProt P31994); experiment: ELISA, coated hCD32b, 0.5 µg/ml
hCD32aR (human) [17] = target: hCD32aR (human) (UniProt P12318); experiment: ELISA, coated hCD32aR, IgG aggregated with anti-CK F(ab')2-HRP

human CD64 receptor (hFcγRI) (human), sequence (P12314 16-288 limits assumed): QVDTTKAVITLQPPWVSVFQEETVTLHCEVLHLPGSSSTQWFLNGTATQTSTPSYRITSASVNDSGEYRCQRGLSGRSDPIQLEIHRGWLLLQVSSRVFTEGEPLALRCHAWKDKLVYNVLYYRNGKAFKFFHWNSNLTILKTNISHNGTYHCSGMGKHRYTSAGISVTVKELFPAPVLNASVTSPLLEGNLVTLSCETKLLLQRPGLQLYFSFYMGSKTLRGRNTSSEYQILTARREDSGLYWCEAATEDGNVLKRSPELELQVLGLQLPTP

| OD 450 nm at 0.5 µg/ml [1] [OD 450 nm] | OD 450 nm at 10 µg/ml [2] [OD 450 nm] | OD Ratio variant/IgG1 WT [3] | OD Ratio variant/IgG1 WT (hCD32aH (human) [4]) | OD 450 nm at 0.2 µg/ml [5] [OD 450 nm] | OD 450 nm at 0.5 µg/ml (hCD32aH (human) [6]) [OD 450 nm] | OD 450 nm at 0.2 µg/ml [7] [OD 450 nm] | OD Ratio variant/IgG1 WT (hCD32aR (human) [8]) | OD 450 nm at 0.5 µg/ml (hCD16aV (human) [9]) [OD 450 nm] | OD 450 nm at 0.2 µg/ml [10] [OD 450 nm] | OD 450 nm at 0.5 µg/ml (hCD32b (human) [11]) [OD 450 nm] | OD Ratio variant/IgG1 WT [12] | OD Ratio variant/IgG1 WT [13] | OD Ratio variant/IgG1 WT [14] | OD Ratio variant/IgG1 WT (hCD16aV (human) [15]) | OD Ratio variant/IgG1 WT (hCD32b (human) [16]) | OD 450 nm at 0.5 µg/ml (hCD32aR (human) [17]) [OD 450 nm] | Substance |
| --- | --- | --- | --- | --- | --- | --- | --- | --- | --- | --- | --- | --- | --- | --- | --- | --- | --- |
| 1.26 | 0.317 |  |  |  |  |  |  |  |  |  |  |  |  |  |  |  | IgG1_WT nivolumab (from UniProt P01857 1-330) (antibody) |
| 1.24 | 2.37 | 0.98 | 1.02 | 0.235 | 1.65 | 2.87 | 0.65 | 1.07 | 2.28 | 0.481 | 1.1 | 7.47 | 0.95 | 1.31 | 0.24 | 2.43 | IgG1_C6A_74 nivolumab (V259I/N315D/N434Y) (antibody) |
| 0.777 | 0.379 |  |  |  |  |  |  |  |  |  |  |  |  |  |  |  | IgG1_WT pembrolizumab (from UniProt P01857 1-330) (antibody) |
| 0.0574 | 2.3 | 0.05 | 0.05 | 0.31 | 0.0798 | 2.77 | 0.06 | 0.121 | 2.29 | 0.132 | 1.06 | 7.27 | 0.96 | 0.15 | 0.06 | 0.242 | IgG1_C6A_74Del294 nivolumab (V259I/Del294/N315D/N434Y) (antibody) |
